Assay results: publication PMC3526283, “DNA-binding determinants promoting NHEJ by human Polµ”

Columns and labels:
Polµ-ΔBRCT [1] = biological target: T1, Polµ-ΔBRCT (Homo sapiens, UniProt Q9NP87 138-494); test: EMSA; 300 and 600 nM protein; EMSA: 50 mM Tris-HCl pH 7.5, 0.1 mg/ml BSA, 1 mM DTT, 4% glycerol, 5 nM DNA, 10 min at 30°C; footprinting: same buffer, 30 nM DNA, 37°C (2.5 mM MgCl2 and 100 µM dNTP where stated); settings: protein: recombinant; tags: pRSETA construct; label: 32P; 3' overhang 2 nt (text says 3 nt), other end blunt
T1 sequence (Q9NP87 138-494, stated change not applied): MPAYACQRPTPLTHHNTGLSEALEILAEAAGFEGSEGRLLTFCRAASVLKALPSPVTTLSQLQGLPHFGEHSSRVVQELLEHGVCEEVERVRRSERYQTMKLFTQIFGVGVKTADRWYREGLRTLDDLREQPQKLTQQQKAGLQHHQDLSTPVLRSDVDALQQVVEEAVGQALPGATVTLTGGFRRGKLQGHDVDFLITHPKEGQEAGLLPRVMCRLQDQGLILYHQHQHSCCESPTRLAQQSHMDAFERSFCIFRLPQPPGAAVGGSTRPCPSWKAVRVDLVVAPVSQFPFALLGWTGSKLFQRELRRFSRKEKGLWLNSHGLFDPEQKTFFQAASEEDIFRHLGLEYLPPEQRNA

DNA polymerase mu (Polµ) [2] = biological target: T2, DNA polymerase mu (Polµ) (Homo sapiens, UniProt Q9NP87 1-494); test: EMSA; EMSA: 50 mM Tris-HCl pH 7.5, 0.1 mg/ml BSA, 1 mM DTT, 4% glycerol, 5 nM DNA, 10 min at 30°C; footprinting: same buffer, 30 nM DNA, 37°C (2.5 mM MgCl2 and 100 µM dNTP where stated); settings: protein: recombinant, tags: pRSETA-hPolµ construct
T2 sequence (Q9NP87 whole entry): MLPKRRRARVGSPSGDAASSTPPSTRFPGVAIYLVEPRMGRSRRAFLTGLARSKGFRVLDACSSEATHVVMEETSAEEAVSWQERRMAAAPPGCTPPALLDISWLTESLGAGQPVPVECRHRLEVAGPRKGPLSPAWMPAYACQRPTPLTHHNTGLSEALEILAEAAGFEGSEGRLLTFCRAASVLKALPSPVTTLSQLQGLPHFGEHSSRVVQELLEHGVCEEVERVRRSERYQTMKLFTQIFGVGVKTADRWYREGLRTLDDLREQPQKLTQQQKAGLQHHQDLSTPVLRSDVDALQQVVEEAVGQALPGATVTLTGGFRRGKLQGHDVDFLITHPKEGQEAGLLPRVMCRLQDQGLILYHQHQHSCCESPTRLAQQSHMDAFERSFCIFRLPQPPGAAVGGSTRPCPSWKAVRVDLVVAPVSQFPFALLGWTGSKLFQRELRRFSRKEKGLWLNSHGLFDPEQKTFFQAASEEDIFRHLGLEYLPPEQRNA

DNA polymerase mu (Polµ) [3] = biological target: T2, DNA polymerase mu (Polµ); test: DNase I footprinting; 100 µM dTTP, 2.5 mM MgCl2; protects positions 36-52; EMSA: 50 mM Tris-HCl pH 7.5, 0.1 mg/ml BSA, 1 mM DTT, 4% glycerol, 5 nM DNA, 10 min at 30°C; footprinting: same buffer, 30 nM DNA, 37°C (2.5 mM MgCl2 and 100 µM dNTP where stated); settings: protein: recombinant; tags: pRSETA-hPolµ construct; label: 32P at 5' end of FP-T; 1-nt gap, three strands; template FP-T, primer FP-P, downstream FP-D; otherwise blunt
[4] = biological target: T3, DNA polymerase beta (Polβ) (Homo sapiens, UniProt P06746 1-335); test: DNase I footprinting; 100 µM dTTP, 2.5 mM MgCl2; protects positions 36-45; EMSA: 50 mM Tris-HCl pH 7.5, 0.1 mg/ml BSA, 1 mM DTT, 4% glycerol, 5 nM DNA, 10 min at 30°C; footprinting: same buffer, 30 nM DNA, 37°C (2.5 mM MgCl2 and 100 µM)
Polµ H329G = Polµ H329G (Homo sapiens, UniProt Q9NP87 1-494, H329G); test: DNase I footprinting; with/without dATP or dTTP; no expansion with nucleotide, no downstream BRCT extension; EMSA: 50 mM Tris-HCl pH 7.5, 0.1 mg/ml BSA, 1 mM DTT, 4% glycerol, 5 nM DNA, 10 min at 30°C; footprinting: same buffer, 30 nM DNA, 37°C (2.5 mM MgCl2 and 100 µM dNTP where stated); settings: protein: recombinant; label: 32P at 5' end of FP-T; 1-nt gap, three strands; template FP-T, primer FP-P, downstream FP-D; otherwise blunt
Sequence of Polµ H329G (Q9NP87 whole entry H329G): as the sequence (Q9NP87 whole entry) above, with H329G counted along it

Polµ R387A = Polµ R387A (Homo sapiens, UniProt Q9NP87 1-494, R387A); test: DNase I footprinting; footprint expands to primer side with dTTP; downstream extension only partly recovered with dTTP; EMSA: 50 mM Tris-HCl pH 7.5, 0.1 mg/ml BSA, 1 mM DTT, 4% glycerol, 5 nM DNA, 10 min at 30°C; footprinting: same buffer, 30 nM DNA, 37°C (2.5 mM MgCl2 and 100 µM dNTP where stated); settings: protein: recombinant, label: 32P at 5' end of FP-T, 1-nt gap, three strands, template FP-T, downstream FP-D, otherwise blunt
Sequence of Polµ R387A (Q9NP87 whole entry R387A): as the sequence (Q9NP87 whole entry) above, with R387A counted along it

Polµ-ΔBRCT [5] = biological target: T1, Polµ-ΔBRCT; test: DNase I footprinting; protects 10 nt, no downstream extension; EMSA: 50 mM Tris-HCl pH 7.5, 0.1 mg/ml BSA, 1 mM DTT, 4% glycerol, 5 nM DNA, 10 min at 30°C; footprinting: same buffer, 30 nM DNA, 37°C (2.5 mM MgCl2 and 100 µM dNTP where stated); settings: protein: recombinant; tags: pRSETA construct; label: 32P at 5' end of FP-T; 1-nt gap, three strands; template FP-T, primer FP-P, downstream FP-D; otherwise blunt
Polµ-ΔBRCT [6] = biological target: T1, Polµ-ΔBRCT; test: EMSA; 5'-P assignment inferred: binding undetectable without it; EMSA: 50 mM Tris-HCl pH 7.5, 0.1 mg/ml BSA, 1 mM DTT, 4% glycerol, 5 nM DNA, 10 min at 30°C; footprinting: same buffer, 30 nM DNA, 37°C (2.5 mM MgCl2 and 100 µM dNTP where stated); settings: protein: recombinant; tags: pRSETA construct; label: 32P; 3' overhang 2 nt (text says 3 nt), other end blunt
[7] = biological target: T3, DNA polymerase beta (Polβ); test: EMSA; 100 nM protein; EMSA: 50 mM Tris-HCl pH 7.5, 0.1 mg/ml BSA, 1 mM DTT, 4% glycerol, 5 nM DNA, 10 min at 30°C; footprinting: same buffer, 30 nM DNA, 37°C (2.5 mM MgCl2 and 100 µM)
[8] = label: 32P, 3' overhang 2 nt (text says 3 nt), other end blunt
[9] = label: 32P at 5' end of Sp1C, 1-nt gap, three strands, otherwise blunt

B1: 3'-protruding end GT/NHEJ-D, 5'-OH (dsDNA)
DNA 1: CCCTCCCTCCCGT
DNA 2: GGGAGGGAGGG
- binding result (Polµ-ΔBRCT [1]): no binding
- Kd (DNA polymerase mu (Polµ) [2]; [8]): 400 nM

B2: 1-nt gap Sp1C/T28/D12, 5'-OH (dsDNA)
DNA 1: AGAAGTGTATCTCGTACTCACTGTGATC
DNA 2: GATCACAGTGAGTAC
DNA 3: AGATACACTTCT
- Kd (DNA polymerase mu (Polµ) [2]; [9]): 500 nM

B3: footprint 1-nt gap FP-T/FP-P/FP-D, 5'-P (dsDNA)
DNA 1: GGCAGCTTGGATCTTGTCGAAAAACGTCAACATTCGCCTAGGCTTCGGCAATACTGAGGTCTTGTCGAAAAACGTCAACATTGCGTGGCC
DNA 2: GGCCACGCAATGTTGACGTTTTTCGACAAGACCTCAGTAT
DNA 3: GCCGAAGCCTAGGCGAATGTTGACGTTTTTCGACAAGATCCAAGCTGCC
modifications: 5'-phosphate on FP-D (S10)
- binding result (DNA polymerase mu (Polµ) [3]): binds
- binding result [4]: binds
- binding result (Polµ H329G): binds
- binding result (Polµ R387A): binds
- binding result (Polµ-ΔBRCT [5]): binds

B4: 3'-protruding end GT/NHEJ-D, 5'-P (dsDNA)
DNA 1: CCCTCCCTCCCGT
DNA 2: GGGAGGGAGGG
modifications: 5'-phosphate on NHEJ-D (S15)
- Kd (Polµ-ΔBRCT [6]): 2000 nM
- Kd (DNA polymerase mu (Polµ) [2]; [8]): 165 nM

B5: 1-nt gap Sp1C/T28/D12, 5'-P (dsDNA)
DNA 1: AGAAGTGTATCTCGTACTCACTGTGATC
DNA 2: GATCACAGTGAGTAC
DNA 3: AGATACACTTCT
modifications: 5'-phosphate on D12 (S3)
- binding result [7]: binds
- Kd (DNA polymerase mu (Polµ) [2]; [9]): 100 nM
